# According to patent US20060067919A1:
# Molecular target: truncated APC mutant in SW480 cells (human) (UniProt P25054)
# Test: cell-based or functional assay
# UniProt P25054, sequence (P25054 2-1337, change not shown): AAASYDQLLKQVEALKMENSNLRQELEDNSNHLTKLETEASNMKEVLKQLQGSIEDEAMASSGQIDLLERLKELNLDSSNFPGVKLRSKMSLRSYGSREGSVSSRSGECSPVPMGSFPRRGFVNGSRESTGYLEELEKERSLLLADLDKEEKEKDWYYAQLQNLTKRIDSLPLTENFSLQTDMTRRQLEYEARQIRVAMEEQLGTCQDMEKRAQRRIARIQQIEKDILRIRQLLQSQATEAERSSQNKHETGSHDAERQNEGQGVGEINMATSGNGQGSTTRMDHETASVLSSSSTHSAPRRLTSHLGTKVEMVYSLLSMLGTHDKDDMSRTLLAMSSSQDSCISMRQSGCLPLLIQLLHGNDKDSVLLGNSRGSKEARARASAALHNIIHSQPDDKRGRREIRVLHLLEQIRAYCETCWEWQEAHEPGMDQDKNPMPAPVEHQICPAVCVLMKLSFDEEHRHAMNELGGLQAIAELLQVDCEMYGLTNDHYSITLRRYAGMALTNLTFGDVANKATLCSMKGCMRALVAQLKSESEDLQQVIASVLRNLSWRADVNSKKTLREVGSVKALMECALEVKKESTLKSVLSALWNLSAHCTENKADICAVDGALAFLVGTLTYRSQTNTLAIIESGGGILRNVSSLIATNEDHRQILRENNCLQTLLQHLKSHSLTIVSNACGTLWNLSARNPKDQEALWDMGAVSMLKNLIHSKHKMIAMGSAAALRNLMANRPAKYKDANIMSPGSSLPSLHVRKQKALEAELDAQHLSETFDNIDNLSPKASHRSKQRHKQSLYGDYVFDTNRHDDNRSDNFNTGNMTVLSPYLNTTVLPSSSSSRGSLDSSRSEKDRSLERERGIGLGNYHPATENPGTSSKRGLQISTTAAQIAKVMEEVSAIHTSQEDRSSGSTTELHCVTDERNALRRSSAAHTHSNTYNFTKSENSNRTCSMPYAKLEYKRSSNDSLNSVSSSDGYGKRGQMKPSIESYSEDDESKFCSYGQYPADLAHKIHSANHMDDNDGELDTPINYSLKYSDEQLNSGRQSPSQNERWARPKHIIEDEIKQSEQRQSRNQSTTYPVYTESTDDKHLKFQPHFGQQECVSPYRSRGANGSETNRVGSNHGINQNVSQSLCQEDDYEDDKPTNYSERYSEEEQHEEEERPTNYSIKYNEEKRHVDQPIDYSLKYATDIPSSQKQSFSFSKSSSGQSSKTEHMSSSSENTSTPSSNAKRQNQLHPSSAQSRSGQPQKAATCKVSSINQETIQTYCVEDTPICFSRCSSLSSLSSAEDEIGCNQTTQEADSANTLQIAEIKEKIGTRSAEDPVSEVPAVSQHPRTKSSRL
Substance,migration of SW480 cells relative to parental or Mock cells (% of parental or Mock cells),decrease of migration of SW480 cells [% decrease]
Asef-ABR expressed in cells from a plasmid (from UniProt Q9NR80 73-126),50,
Asef-ΔDH (mutant that lacks the DH domain (GEF domain) of Asef) (from UniProt Q9NR80 1-619),,40
